Experimental data: patent US12398194

Columns and labels:
CD19 (human) = CD19 (human) (UniProt P15391); test: SPR (Biacore T200), scFv-Fc captured on an anti-IgG CM5 chip, interaction partner injected, 1:1 Langmuir fit
CD22 (human) = CD22 (human) (UniProt P20273); test: as above

Chain of CD19 (human) (P15391 21-278 limits assumed): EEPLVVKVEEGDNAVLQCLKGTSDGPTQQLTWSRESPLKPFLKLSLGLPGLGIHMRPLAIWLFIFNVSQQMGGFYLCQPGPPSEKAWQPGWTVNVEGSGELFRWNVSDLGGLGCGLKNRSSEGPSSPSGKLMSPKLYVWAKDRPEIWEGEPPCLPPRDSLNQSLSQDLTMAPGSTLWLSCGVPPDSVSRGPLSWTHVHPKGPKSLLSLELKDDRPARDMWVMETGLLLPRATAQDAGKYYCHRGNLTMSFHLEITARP

Row | koff (CD19 (human)) [s⁻¹] | kon (CD19 (human)) [M⁻¹ s⁻¹] | Kd (CD22 (human)) [nM] | koff (CD22 (human)) [s⁻¹] | kon (CD22 (human)) [M⁻¹ s⁻¹] | Binder
1 | 0.000328 | 178000 | – | – | – | murine CD19ALAb scFv (scFv, part only; not given: VH-VL linker and Fc, not shown: another chain or arm of the molecule; a dimerising Fc or GST; small tags and cut ends) scFv: QVQLQQSGAELVRPGSSVKISCKASGYAFSSYWMNWVKQRPGQGLEWIGQIWPGDGDTNYNGKFKGKATLTADESSSTAYMQLSSLASEDSAVYFCARRETTTVGRYYYAMDYWGQGTTVTVSSDIQLTQSPASLAVSLGQRATISCKASQSVDYDGDSYLNWYQQIPGQPPKLLIYDASNLVSGIPPRFSGSGSGTDFTLNIHPVEKVDAATYHCQQSTEDPWTFGGGTKLEIK
2 | – | – | 32 | 0.00226 | 68300 | humanized CD22ALAb scFv (scFv, part only; not given: VH-VL linker and Fc, not shown: another chain or arm of the molecule; a dimerising Fc or GST; small tags and cut ends) scFv: EVQLVESGAEVKKPGSSVKVSCKASGYTFTNYWINWVRQAPGQGLEWIGNIYPSDSFTNYNQKFKDRATLTVDKSTSTAYLELRNLRSDDTAVYYCTRDTQERSWYFDVWGQGTLVTVSSDIVMTQSPATLSVSPGERATLSCRSSQSLVHSNGNTYLHWYQQKPGQAPRLLIYKVSNRFSGVPARFSGSGSGVEFTLTISSLQSEDFAVYYCSQSTHVPWTFGQGTRLEIK
